Experimental data reported in patent US20230407373A1 (priority 2020, published 2023).

B1: HNRNPUL1: host protein, UniProt Q9BU32 (protein, UniProt Q9BUJ2 1-856, looked up)
Heterogeneous nuclear …: MDVRRLKVNELREELQRRGLDTRGLKAELAERLQAALEAEEPDDERELDADDEPGRPGHINEEVETEGGSELEGTAQPPPPGLQPHAEPGGYSGPDGHYAMDNITRQNQFYDTQVIKQENESGYERRPLEMEQQQAYRPEMKTEMKQGAPTSFLPPEASQLKPDRQQFQSRKRPYEENRGRGYFEHREDRRGRSPQPPAEEDEDDFDDTLVAIDTYNCDLHFKVARDRSSGYPLTIEGFAYLWSGARASYGVRRGRVCFEMKINEEISVKHLPSTEPDPHVVRIGWSLDSCSTQLGEEPFSYGYGGTGKKSTNSRFENYGDKFAENDVIGCFADFECGNDVELSFTKNGKWMGIAFRIQKEALGGQALYPHVLVKNCAVEFNFGQRAEPYCSVLPGFTFIQHLPLSERIRGTVGPKSKAECEILMMVGLPAAGKTTWAIKHAASNPSKKYNILGTNAIMDKMRVMGLRRQRNYAGRWDVLIQQATQCLNRLIQIAARKKRNYILDQTNVYGSAQRRKMRPFEGFQRKAIVICPTDEDLKDRTIKRTDEEGKDVPDHAVLEMKANFTLPDVGDFLDEVLFIELQREEADKLVRQYNEEGRKAGPPPEKRFDNRGGGGFRGRGGGGGFQRYENRGPPGGNRGGFQNRGGGSGGGGNYRGGFNRSGGGGYSQNRWGNNNRDNNNSNNRGSYNRAPQQQPPPQQPPPPQPPPQQPPPPPSYSPARNPPGASTYNKNSNIPGSSANTSTPTVSSYSPPQPSYSQPPYNQGGYSQGYTAPPPPPPPPPAYNYGSYGGYNPAPYTPPPPPTAQTYPQPSYNQYQQYAQQWNQYYQNQGQWPPYYGNYDYGSYSGNTQGGTSTQ
B2: SRSF5: host protein, UniProt Q13243 (protein, UniProt Q13243 1-272, looked up)
Serine/arginine-rich splicing …: MSGCRVFIGRLNPAAREKDVERFFKGYGRIRDIDLKRGFGFVEFEDPRDADDAVYELDGKELCSERVTIEHARARSRGGRGRGRYSDRFSSRRPRNDRRNAPPVRTENRLIVENLSSRVSWQDLKDFMRQAGEVTFADAHRPKLNEGVVEFASYGDLKNAIEKLSGKEINGRKIKLIEGSKRHSRSRSRSRSRTRSSSRSRSRSRSRSRKSYSRSRSRSRSRSRSKSRSVSRSPVPEKSQKRGSSSRSKSPASVDRQRSRSRSRSRSVDSGN
B3: HNRNPR (protein, UniProt O43390 2-633, looked up)
Heterogeneous nuclear …: ANQVNGNAVQLKEEEEPMDTSSVTHTEHYKTLIEAGLPQKVAERLDEIFQTGLVAYVDLDERAIDALREFNEEGALSVLQQFKESDLSHVQNKSAFLCGVMKTYRQREKQGSKVQESTKGPDEAKIKALLERTGYTLDVTTGQRKYGGPPPDSVYSGVQPGIGTEVFVGKIPRDLYEDELVPLFEKAGPIWDLRLMMDPLSGQNRGYAFITFCGKEAAQEAVKLCDSYEIRPGKHLGVCISVANNRLFVGSIPKNKTKENILEEFSKVTEGLVDVILYHQPDDKKKNRGFCFLEYEDHKSAAQARRRLMSGKVKVWGNVVTVEWADPVEEPDPEVMAKVKVLFVRNLATTVTEEILEKSFSEFGKLERVKKLKDYAFVHFEDRGAAVKAMDEMNGKEIEGEEIEIVLAKPPDKKRKERQAARQASRSTAYEDYYYHPPPRMPPPIRGRGRGGGRGGYGYPPDYYGYEDYYDDYYGYDYHDYRGGYEDPYYGYDDGYAVRGRGGGRGGRGAPPPPRGRGAPPPRGRAGYSQRGAPLGPPRGSRGGRGGPAQQQRGRGSRGSRGNRGGNVGGKRKADGYNQPDSKRRQTNNQQNWGSQPIAQQPLQQGGDYSGNYGYNNDNQEFYQDTYGQQWK
B4: FBL: host protein, UniProt P22087 (protein, UniProt P22087 1-321, looked up)
rRNA 2'-O-methyltransferase …: MKPGFSPRGGGFGGRGGFGDRGGRGGRGGFGGGRGRGGGFRGRGRGGGGGGGGGGGGGRGGGGFHSGGNRGRGRGGKRGNQSGKNVMVEPHRHEGVFICRGKEDALVTKNLVPGESVYGEKRVSISEGDDKIEYRAWNPFRSKLAAAILGGVDQIHIKPGAKVLYLGAASGTTVSHVSDIVGPDGLVYAVEFSHRSGRDLINLAKKRTNIIPVIEDARHPHKYRMLIAMVDVIFADVAQPDQTRIVALNAHTFLRNGGHFVISIKANCIDSTASAEAVFASEVKKMQQENMKPQEQLTLEPYERDHAVVVGVYRPPPKVKN
B5: RBMX (protein, UniProt P38159 1-391, looked up)
RNA-binding motif protein, X …: MVEADRPGKLFIGGLNTETNEKALEAVFGKYGRIVEVLLMKDRETNKSRGFAFVTFESPADAKDAARDMNGKSLDGKAIKVEQATKPSFESGRRGPPPPPRSRGPPRGLRGGRGGSGGTRGPPSRGGHMDDGGYSMNFNMSSSRGPLPVKRGPPPRSGGPPPKRSAPSGPVRSSSGMGGRAPVSRGRDSYGGPPRREPLPSRRDVYLSPRDDGYSTKDSYSSRDYPSSRDTRDYAPPPRDYTYRDYGHSSSRDDYPSRGYSDRDGYGRDRDYSDHPSGGSYRDSYESYGNSRSAPPTRGPPPSYGGSSRYDDYSSSRDGYGGSRDSYSSSRSDLYSSGRDRVGRQERGLPPSMERGYPPPRDSYSSSSRGAPRGGGRGGSRSDRGGGRSRY
B6: PUF60: host protein, UniProt Q9UHX1 (protein, UniProt Q9UHX1 1-559, looked up)
Poly(U)-binding-splicing …: MATATIALQVNGQQGGGSEPAAAAAVVAAGDKWKPPQGTDSIKMENGQSTAAKLGLPPLTPEQQEALQKAKKYAMEQSIKSVLVKQTIAHQQQQLTNLQMAAVTMGFGDPLSPLQSMAAQRQRALAIMCRVYVGSIYYELGEDTIRQAFAPFGPIKSIDMSWDSVTMKHKGFAFVEYEVPEAAQLALEQMNSVMLGGRNIKVGRPSNIGQAQPIIDQLAEEARAFNRIYVASVHQDLSDDDIKSVFEAFGKIKSCTLARDPTTGKHKGYGFIEYEKAQSSQDAVSSMNLFDLGGQYLRVGKAVTPPMPLLTPATPGGLPPAAAVAAAAATAKITAQEAVAGAAVLGTLGTPGLVSPALTLAQPLGTLPQAVMAAQAPGVITGVTPARPPIPVTIPSVGVVNPILASPPTLGLLEPKKEKEEEELFPESERPEMLSEQEHMSISGSSARHMVMQKLLRKQESTVMVLRNMVDPKDIDDDLEGEVTEECGKFGAVNRVIIYQEKQGEEEDAEIIVKIFVEFSIASETHKAIQALNGRWFAGRKVVAEVYDQERFDNSDLSA
B7: HNRNPD (protein, UniProt Q14103 2-355, looked up)
Heterogeneous nuclear …: SEEQFGGDGAAAAATAAVGGSAGEQEGAMVAATQGAAAAAGSGAGTGGGTASGGTEGGSAESEGAKIDASKNEEDEGHSNSSPRHSEAATAQREEWKMFIGGLSWDTTKKDLKDYFSKFGEVVDCTLKLDPITGRSRGFGFVLFKESESVDKVMDQKEHKLNGKVIDPKRAKAMKTKEPVKKIFVGGLSPDTPEEKIREYFGGFGEVESIELPMDNKTNKRRGFCFITFKEEEPVKKIMEKKYHNVGLSKCEIKVAMSKEQYQQQQQWGSRGGFAGRARGRGGGPSQNWNQGYSNYWNQGYGNYGYNSQGYGGYGGYDYTGYNNYYGYGDYSNQQSGYGKVSRRGGHQNSYKPY

test system: SARS-CoV-2 gRNA; format: binding; details: Probe I capture; […]; LC-MS/MS LFQ

B1 and B2 are the same in “target (unweighted spectral count in RNP capture)” value: 5 for the first, 5 for the second.

same assay, conditions: […]; LC-MS/MS; Probe I sample (first 199 lines of Table 2)

Going from B3 to B4, the “target (unweighted spectral count of the protein in the RNP capture)” value falls from 32 to 5.

First: B5
Second: B6
The “target (unweighted spectral count of the protein in the RNP capture)” value of the first is lower: 6 for the first, 7 for the second.

In the case of B7, the “target (unweighted spectral count of the protein in the RNP capture)” value is reported as 37.

same assay, conditions: no-probe control pull-down, used as background for Probe I

B1 and B2 are the same in “background (unweighted spectral count in control)” value: 1 for the first, 1 for the second.

test system: gRNA of HCoV-OC43; format: binding; details: type g_36_m; HCoV-OC43-infected HCT-8 cells, 36 hpi, Probe I

Compared with B4, B1 is higher in “target (spectral count)” value: 10 for the first, 13 for the second.

With B2 the “target (spectral count)” value was 8.

same assay, conditions: type g_36_m; uninfected-probe control, 36 hpi, Probe I

Compared with B4, B1 is higher in “background (spectral count)” value: 1 for the first, 2 for the second.

With B2 the “background (spectral count)” value was 1.

same assay, conditions: type n_48_v: 48 hours post-infection, infected cells, OC43 Probe I; unweighted spectral count

Going from B3 to B4, the “target (spectral count, OC43 Probe I RNP capture)” value falls from 63 to 9.

Going from B1 to B5, the “target (spectral count, OC43 Probe I RNP capture)” value rises from 11 to 17.

First: B6
Second: B7
The “target (spectral count, OC43 Probe I RNP capture)” value of the first is lower: 9 for the first, 26 for the second.

same assay, conditions: type n_48_v: 48 hours post-infection, no-probe control on infected cells

Compared with B3, B4 is lower in “background (spectral count, no-probe control)” value: 4 for the first, 2 for the second.

B1 and B5 are the same in “background (spectral count, no-probe control)” value: 1 for the first, 1 for the second.

Going from B6 to B7, the “background (spectral count, no-probe control)” value rises from 1 to 2.

test system: HCoV-OC43 gRNA and sgRNA; format: binding; details: 24 hpi; type n_24_v; tested against no-probe control; FDR<10%

B4 and B2 are the same in “target (unweighted spectral count, OC43 Probe II capture)” value: 4 for the first, 4 for the second.

same assay, conditions: 36 hpi; type n_36_v; tested against no-probe control; FDR<10%

First: B3
Second: B4
The “target (unweighted spectral count, OC43 Probe II capture)” value of the first is higher: 52 for the first, 11 for the second.

Going from B5 to B6, the “target (unweighted spectral count, OC43 Probe II capture)” value falls from 12 to 7.

B2 was tested, and the “target (unweighted spectral count, OC43 Probe II capture)” value was 10.

same assay, conditions: OC43 Probe II, 12 hpi (type n_12_v), infected cells; tested against no-probe control

Compared with B3, B1 is lower in “target (unweighted spectral count)” value: 13 for the first, 4 for the second.

B5 was tested, and the “target (unweighted spectral count)” value was 4.

same assay, conditions: OC43 Probe II, 24 hpi (type n_24_v), infected cells; tested against no-probe control

Compared with B3, B1 is lower in “target (unweighted spectral count)” value: 24 for the first, 8 for the second.

Compared with B5, B7 is higher in “target (unweighted spectral count)” value: 6 for the first, 17 for the second.

same assay, conditions: type n_48_v; 48 hpi; OC43 Probe II capture on infected cells

Going from B3 to B1, the “target (unweighted spectral count, OC43 Probe II)” value falls from 76 to 11.

Compared with B5, B6 is lower in “target (unweighted spectral count, OC43 Probe II)” value: 20 for the first, 7 for the second.

Compared with B2, B7 is higher in “target (unweighted spectral count, OC43 Probe II)” value: 12 for the first, 36 for the second.

same assay, conditions: type n_48_v; 48 hpi; no-probe control on infected cells

Compared with B3, B1 is lower in “background (unweighted spectral count, no-probe control)” value: 4 for the first, 1 for the second.

B5 and B6 are the same in “background (unweighted spectral count, no-probe control)” value: 1 for the first, 1 for the second.

B2 and B7 are the same in “background (unweighted spectral count, no-probe control)” value: 2 for the first, 2 for the second.

same assay, conditions: type s_36_m; HCoV-OC43-infected HCT-8 cells, 36 hpi, Probe II

Going from B4 to B6, the “target (spectral count)” value falls from 11 to 7.

same assay, conditions: type s_36_m; uninfected-probe control, 36 hpi, Probe II

B4 and B6 are the same in “background (spectral count)” value: 1 for the first, 1 for the second.
